This experiment concerns the target vimentin (mouse (endogenous in MC-3T3 and in primary calvarial osteoblasts of C57/B6J mice)) (UniProt P20152). Briefly: co-IP.

Results on one substance are retold here after PMC5228590.

vimentin (mouse (endogenous in MC-3T3 and in primary calvarial osteoblasts of C57/B6J mice)), sequence (P20152 whole entry): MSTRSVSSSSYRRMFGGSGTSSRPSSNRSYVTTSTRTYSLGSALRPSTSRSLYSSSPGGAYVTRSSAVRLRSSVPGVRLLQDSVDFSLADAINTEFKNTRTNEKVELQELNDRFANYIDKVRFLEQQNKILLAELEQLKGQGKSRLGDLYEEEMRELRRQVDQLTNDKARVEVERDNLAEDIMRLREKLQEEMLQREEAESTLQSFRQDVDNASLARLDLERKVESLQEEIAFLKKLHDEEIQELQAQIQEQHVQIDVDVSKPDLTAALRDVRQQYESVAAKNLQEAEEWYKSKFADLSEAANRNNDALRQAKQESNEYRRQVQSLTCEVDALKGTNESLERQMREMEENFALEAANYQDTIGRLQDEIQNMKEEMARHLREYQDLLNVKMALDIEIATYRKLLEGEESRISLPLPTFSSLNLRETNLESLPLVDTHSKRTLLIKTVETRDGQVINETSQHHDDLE

With “receptor protein tyrosine phosphatase β, B9EKR1 25-2312”, the fold increase of the association with IGF-I is 6.7 fold and the percent reduction of the association with the PKCζ pseudosubstrate inhibitor was determined as 62%.
